The values that follow come from publication PMC7528018, “Structure of the TFIIIC subcomplex τA provides insights into RNA polymerase III pre-initiation complex formation” (Nature Communications, 2020).

Series [1] concerns the target T1, TFIIIC subcomplex τA (τ131, τ95, τ55) (S. cerevisiae, UniProt P33339 1-1025; P32367 1-649; Q12415 1-435).
T1 construct: τ131, subunit of S. cerevisiae TFIIIC subcomplex τA; insect cell codon-optimized gene; τ95, subunit of S. cerevisiae TFIIIC subcomplex τA; τ55, subunit of S. cerevisiae TFIIIC subcomplex τA; No TEV cleavage of the his-tag is described in the purification; also called wt τA; full-length τA; source: Hi5 insect cells, subunits co-expressed by baculovirus, purified (Ni-NTA, heparin, MonoQ, Superose …)
Kind of series: co-sedimentation; 10–30% glycerol gradient without crosslinker, equimolar τA and Brf1–TBPΔN, 75 mM NaCl at mixing, 100 mM NaCl, 20 mM HEPES pH 7.5, 5 mM DTT in the gradient, 16 h at 150,000 x g; fractions on SDS–PAGE, silver stain; apparent stoichiometry. The following applies: both partners purified.

Another series has as its target τA Δplug (τ95Δplug) (Saccharomyces cerevisiae, UniProt P33339;P32367;Q12415 1-1025;1-521;1-435). Put plainly: EMSA; 1-10 uM protein, 1 uM DNA; much stronger than wt, weaker than Δtail; τA EMSA: 100 mM NaCl, 20 mM HEPES pH 7.5, 5 mM DTT, 1 h on ice, 10% glycerol added before loading; TFIIIC EMSA: 1 h on ice, buffer not restated; 3-8% Tris-acetate gel in 2.5 mM Tris base, 19 mM glycine, 1 mM DTT. The following applies: protein: recombinant; tags: N-terminal TEV-cleavable His tag on τ95; copies: 1;1;1; label: 6FAM at 3' end of non-template strand.

The next series deals with τA Δtail (τ95Δtail) (Saccharomyces cerevisiae, UniProt P33339;P32367;Q12415 1-1025;1-592;1-435). Kind of series: EMSA; 1-10 uM protein, 1 uM DNA; much stronger than wt and stronger than Δplug; τA EMSA: 100 mM NaCl, 20 mM HEPES pH 7.5, 5 mM DTT, 1 h on ice, 10% glycerol added before loading; TFIIIC EMSA: 1 h on ice, buffer not restated; 3-8% Tris-acetate gel in 2.5 mM Tris base, 19 mM glycine, 1 mM DTT. Conditions: protein: recombinant; tags: N-terminal TEV-cleavable His tag on τ95; copies: 1;1;1; label: 6FAM at 3' end of non-template strand.
τA Δtail (τ95Δtail), sequence (P33339 whole entry, stated change not applied, chain 1 of 3): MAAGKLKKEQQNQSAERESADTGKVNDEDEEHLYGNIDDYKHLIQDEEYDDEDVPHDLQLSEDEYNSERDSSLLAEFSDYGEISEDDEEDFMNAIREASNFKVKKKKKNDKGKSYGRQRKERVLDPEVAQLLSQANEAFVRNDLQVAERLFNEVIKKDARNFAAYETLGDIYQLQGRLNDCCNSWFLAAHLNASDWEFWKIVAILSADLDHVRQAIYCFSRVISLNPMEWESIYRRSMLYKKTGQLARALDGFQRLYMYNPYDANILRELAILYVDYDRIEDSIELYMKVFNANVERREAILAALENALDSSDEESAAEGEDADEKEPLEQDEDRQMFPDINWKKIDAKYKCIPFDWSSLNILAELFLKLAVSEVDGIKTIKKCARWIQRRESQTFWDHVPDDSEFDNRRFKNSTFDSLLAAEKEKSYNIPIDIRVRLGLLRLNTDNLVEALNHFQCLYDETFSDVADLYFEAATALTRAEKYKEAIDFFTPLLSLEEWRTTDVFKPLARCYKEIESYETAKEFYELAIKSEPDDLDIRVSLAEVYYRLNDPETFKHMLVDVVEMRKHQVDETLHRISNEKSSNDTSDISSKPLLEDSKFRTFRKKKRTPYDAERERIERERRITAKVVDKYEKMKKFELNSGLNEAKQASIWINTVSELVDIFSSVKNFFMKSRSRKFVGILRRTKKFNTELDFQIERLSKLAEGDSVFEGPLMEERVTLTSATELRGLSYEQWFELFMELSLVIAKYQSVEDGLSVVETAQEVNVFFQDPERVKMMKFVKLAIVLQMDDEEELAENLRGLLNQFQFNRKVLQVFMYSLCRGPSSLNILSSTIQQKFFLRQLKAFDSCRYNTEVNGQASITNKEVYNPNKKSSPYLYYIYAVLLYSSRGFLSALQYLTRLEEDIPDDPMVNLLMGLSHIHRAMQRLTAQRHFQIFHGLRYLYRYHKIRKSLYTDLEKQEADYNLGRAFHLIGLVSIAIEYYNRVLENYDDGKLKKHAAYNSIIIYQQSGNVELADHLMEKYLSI
τA Δtail (τ95Δtail), sequence (P32367 1-592, stated change not applied, chain 2 of 3): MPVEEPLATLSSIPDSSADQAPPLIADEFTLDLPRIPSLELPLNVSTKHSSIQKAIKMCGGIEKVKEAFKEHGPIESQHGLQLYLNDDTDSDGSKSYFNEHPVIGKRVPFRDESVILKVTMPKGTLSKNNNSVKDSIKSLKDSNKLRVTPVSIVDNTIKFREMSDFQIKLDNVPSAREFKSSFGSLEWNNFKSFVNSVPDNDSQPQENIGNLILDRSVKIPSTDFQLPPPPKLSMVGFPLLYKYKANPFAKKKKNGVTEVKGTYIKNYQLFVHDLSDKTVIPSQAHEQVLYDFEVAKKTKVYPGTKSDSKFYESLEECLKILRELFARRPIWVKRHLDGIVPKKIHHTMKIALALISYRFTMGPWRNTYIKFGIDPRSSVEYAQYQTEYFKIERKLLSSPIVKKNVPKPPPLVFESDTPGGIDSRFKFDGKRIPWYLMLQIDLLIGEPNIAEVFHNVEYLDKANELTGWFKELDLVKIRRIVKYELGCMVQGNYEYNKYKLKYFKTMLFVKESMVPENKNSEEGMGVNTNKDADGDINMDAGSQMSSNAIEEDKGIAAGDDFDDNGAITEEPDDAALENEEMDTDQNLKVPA
τA Δtail (τ95Δtail), sequence (Q12415 whole entry, stated change not applied, chain 3 of 3): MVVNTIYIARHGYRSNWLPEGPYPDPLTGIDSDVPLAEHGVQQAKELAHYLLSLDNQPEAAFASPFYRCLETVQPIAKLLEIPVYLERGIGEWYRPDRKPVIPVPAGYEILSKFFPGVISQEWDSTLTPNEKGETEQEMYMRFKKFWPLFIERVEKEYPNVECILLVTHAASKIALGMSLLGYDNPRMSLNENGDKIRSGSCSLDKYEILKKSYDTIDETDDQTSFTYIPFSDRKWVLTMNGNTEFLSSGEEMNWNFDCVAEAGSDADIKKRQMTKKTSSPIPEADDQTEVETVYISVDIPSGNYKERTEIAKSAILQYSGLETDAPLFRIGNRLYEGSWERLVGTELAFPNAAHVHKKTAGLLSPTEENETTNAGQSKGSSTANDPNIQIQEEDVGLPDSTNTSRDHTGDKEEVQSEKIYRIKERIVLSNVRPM

Series [2] addresses holo-TFIIIC Δtail (τ95Δtail) (Saccharomyces cerevisiae, UniProt P33339;P32367;Q12415;P34111;Q06339;Q12308 1-1025;1-592;1-435;1-1160;1-672;1-588). Put plainly: EMSA; 0.5 uM DNA; tail deletion has only a mild effect; τA EMSA: 100 mM NaCl, 20 mM HEPES pH 7.5, 5 mM DTT, 1 h on ice, 10% glycerol added before loading; TFIIIC EMSA: 1 h on ice, buffer not restated; 3-8% Tris-acetate gel in 2.5 mM Tris base, 19 mM glycine, 1 mM DTT. Conditions: protein: recombinant; tags: N-terminal TEV-cleavable His tag on τ95; C-terminal TEV-cleavable TwinStrep on τ138; copies: 1;1;1;1;1;1; label: 6FAM at 3' end of non-template strand. In general terms: In EMSA bound probe runs differently from free probe, usually more slowly.

τA Δplug (τ95Δplug), sequence (P33339 whole entry, stated change not applied, chain 1 of 3): as the sequence (P33339 whole entry, stated change not applied, chain 1 of 3) above
τA Δplug (τ95Δplug), sequence (P32367 1-521, stated change not applied, chain 2 of 3): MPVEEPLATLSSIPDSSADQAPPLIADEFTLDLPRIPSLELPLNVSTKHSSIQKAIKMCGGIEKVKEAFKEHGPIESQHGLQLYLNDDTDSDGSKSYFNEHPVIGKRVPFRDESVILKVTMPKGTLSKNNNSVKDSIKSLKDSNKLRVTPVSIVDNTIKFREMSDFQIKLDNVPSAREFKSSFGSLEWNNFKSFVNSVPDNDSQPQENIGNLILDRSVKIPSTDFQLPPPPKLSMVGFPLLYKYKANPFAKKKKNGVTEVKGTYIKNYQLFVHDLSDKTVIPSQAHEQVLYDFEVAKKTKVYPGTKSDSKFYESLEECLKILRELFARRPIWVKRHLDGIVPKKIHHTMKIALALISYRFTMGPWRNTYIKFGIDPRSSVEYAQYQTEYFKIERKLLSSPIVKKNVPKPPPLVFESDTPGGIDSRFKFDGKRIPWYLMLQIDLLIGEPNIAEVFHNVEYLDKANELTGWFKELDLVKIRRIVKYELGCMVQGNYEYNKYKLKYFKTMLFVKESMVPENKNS
τA Δplug (τ95Δplug), sequence (Q12415 whole entry, stated change not applied, chain 3 of 3): as the sequence (Q12415 whole entry, stated change not applied, chain 3 of 3) above
T1 sequence (P33339 whole entry, chain 1 of 3): as the sequence (P33339 whole entry, stated change not applied, chain 1 of 3) above
T1 sequence (P32367 whole entry, chain 2 of 3): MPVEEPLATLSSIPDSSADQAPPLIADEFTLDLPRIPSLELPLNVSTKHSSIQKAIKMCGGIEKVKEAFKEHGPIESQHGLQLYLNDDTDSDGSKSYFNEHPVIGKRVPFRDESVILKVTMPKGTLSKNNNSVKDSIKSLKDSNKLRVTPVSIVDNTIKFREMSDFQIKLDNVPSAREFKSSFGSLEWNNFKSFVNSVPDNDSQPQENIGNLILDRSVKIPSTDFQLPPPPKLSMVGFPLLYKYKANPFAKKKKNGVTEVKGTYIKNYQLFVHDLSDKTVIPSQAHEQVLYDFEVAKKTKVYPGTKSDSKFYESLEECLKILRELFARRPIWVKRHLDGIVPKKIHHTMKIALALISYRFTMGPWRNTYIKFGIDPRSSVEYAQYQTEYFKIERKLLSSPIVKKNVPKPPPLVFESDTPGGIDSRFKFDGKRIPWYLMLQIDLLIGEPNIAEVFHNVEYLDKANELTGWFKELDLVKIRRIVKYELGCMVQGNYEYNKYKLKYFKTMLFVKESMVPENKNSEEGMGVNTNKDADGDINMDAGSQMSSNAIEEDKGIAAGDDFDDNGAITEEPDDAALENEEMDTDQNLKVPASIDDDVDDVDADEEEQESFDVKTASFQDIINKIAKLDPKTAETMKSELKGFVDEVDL
T1 sequence (Q12415 whole entry, chain 3 of 3): as the sequence (Q12415 whole entry, stated change not applied, chain 3 of 3) above

B1: Brf1–TBP construct lacking the first 70 amino acids (Zn-ribbon and linker) (other)
chain: SALESREATLNNARRKLRAVSYALHIPEYITDAAFQWYKLALANNFVQGRRSQNVIASCLYVACRKEKTHHMLIDFSSRLQVSVYSIGATFLKMVKKLHITELPLADPSLFIQHFAEKLDLADKKIKVVKDAVKLAQRMSKDWMFEGRRPAGIAGACILLACRMNNLRRTHTEIVAVSHVAEETLQQRLNEFKNTKAAKLSVQKFRENDVEDGEARPPSFVKNRKKERKIKDSLDKEEMFQTSEEALNKNPILTQVLGEQELSSKEVLFYLKQFSERRARVVERIKATNGIDGENIYHEGSENETRKRKLSESGIVPTLQNIVATVTLGCRLDLKTVALHARNAEYNPKRFAAVIMRIREPKTTALIFASGKMVVTGAKSEDDSKLASRKYARIIQKIGFAAKFTDFKIQNIVGSCDVKFPIRLEGLAFSHGTFSSYEPELFPGLIYRMVKPKIVLLIFVSGKIVLTGAKQREEIYQAFEAIYPVLSEFRKMPRNLHLLPTTDTYLSKVSDDPDNLEDVDDEELNAHLLNEEASKLKERIWIGLNADFLLEQESKRLKQEADIATGNTSVKKKRTRRRNNTRSDEPTKTVDAAAAIGLMSDLQDKSGLHAALKAAEESGDFTTADSVKNMLQKASFSKKINYDAIDGLFR
By stoichiometry N is commonly meant the number of molecules, sites or subunits per partner or assembly. Regarding B1, the “stoichiometry N” value in series [1] worked out at 1.

B2: His_Abox (dsDNA)
DNA 1: CATCTTAGTATAGTGGTTAGT
DNA 2: ACTAACCACTATACTAAGATG
On to B2, for which the binding result in the series with τA Δplug (τ95Δplug) and with τA Δtail (τ95Δtail) was “binds” throughout.

B3: His_Abox_Bbox (dsDNA)
DNA 1: CATCTTAGTATAGTGGTTAGTACACATCGTTGTGGCCGATGAAACCCTGGTTCGATTCTAGG
DNA 2: CCTAGAATCGAACCAGGGTTTCATCGGCCACAACGATGTGTACTAACCACTATACTAAGATG
Take B3: the binding result in series [2] is listed as “binds”.
